The target in assay [1] is hVEGFR1-Fc (R&D 321-fl 050/cf) (human) (UniProt P17948). The experiment in a line: competition ELISA, coated hVEGFR1-Fc, competitor biotin-hPLGF1 4 nM; control Ron antibody 5.0000 µg/ml. For orientation: In an ELISA, binding on a coated surface is turned into a signal by an enzyme label.
Assay [2] shares this target. The experiment in a line: competition ELISA, coated hVEGFR1-Fc, competitor biotin-hVEGFA-165 2 nM; control Ron antibody 1.6667 µg/ml.
Assay [3] shares this target. The experiment in a line: competition ELISA, coated hVEGFR1-Fc, competitor biotin-hVEGFA-165 2 nM; control Ron antibody 0.023 µg/ml.
For assay [4] the target is unchanged. The experiment in a line: competition ELISA, coated hVEGFR1-Fc, competitor biotin-hPLGF1 2 nM; control Ron antibody 0.617 µg/ml.
Assay [5] has the same target. The experiment in a line: competition ELISA, coated hVEGFR1-Fc, competitor biotin-hVEGFA-165 2 nM; control Ron antibody 5.556 µg/ml.
Assay [6] shares this target. The experiment in a line: competition ELISA, coated hVEGFR1-Fc, competitor biotin-hVEGFA-165 2 nM; control Ron antibody 0.0023 µg/ml.
Assay [7] shares this target. The experiment in a line: competition ELISA, coated hVEGFR1-Fc, competitor biotin-hPLGF1 2 nM; control Ron antibody 5.556 µg/ml.
Assay [8] has the same target. The experiment in a line: competition ELISA, coated hVEGFR1-Fc, competitor biotin-hVEGFA-165 2 nM; control Ron antibody 0.617 µg/ml.
For assay [9] the target is unchanged. The experiment in a line: competition ELISA, coated hVEGFR1-Fc, competitor biotin-hVEGFA-165 2 nM; control Ron antibody 0.5556 µg/ml.
The target is the same in assay [10]. The experiment in a line: competition ELISA, coated hVEGFR1-Fc, competitor biotin-hPLGF1 2 nM; control Ron antibody 0.206 µg/ml.
Assay [11] has the same target. The experiment in a line: competition ELISA, coated hVEGFR1-Fc, competitor biotin-hPLGF1 4 nM; control Ron antibody 0.0206 µg/ml.
Assay [12] shares this target. The experiment in a line: competition ELISA, coated hVEGFR1-Fc, competitor biotin-hVEGFA-165 2 nM; control Ron antibody 5.0000 µg/ml.
Assay [13] has the same target. The experiment in a line: competition ELISA, coated hVEGFR1-Fc, competitor biotin-hVEGFA-165 2 nM; control Ron antibody 0.069 µg/ml.
Assay [14] has the same target. The experiment in a line: competition ELISA, coated hVEGFR1-Fc, competitor biotin-hPLGF1 2 nM; control Ron antibody 0.069 µg/ml.
The target is the same in assay [15]. The experiment in a line: competition ELISA, coated hVEGFR1-Fc, competitor biotin-hVEGFA-165 2 nM; control Ron antibody 0.206 µg/ml.
For assay [16] the target is unchanged. The experiment in a line: competition ELISA, coated hVEGFR1-Fc, competitor biotin-hVEGFA-165 2 nM; control Ron antibody 1.852 µg/ml.
For assay [17] the target is unchanged. The experiment in a line: competition ELISA, coated hVEGFR1-Fc, competitor biotin-hPLGF1 2 nM; control Ron antibody 0.023 µg/ml.
Assay [18] shares this target. The experiment in a line: competition ELISA, coated hVEGFR1-Fc, competitor biotin-hPLGF1 4 nM; control Ron antibody 1.6667 µg/ml.
Assay [19] has the same target. The experiment in a line: competition ELISA, coated hVEGFR1-Fc, competitor biotin-hPLGF1 4 nM; control Ron antibody 0.0069 µg/ml.
For assay [20] the target is unchanged. The experiment in a line: competition ELISA, coated hVEGFR1-Fc, competitor biotin-hPLGF1 4 nM; control Ron antibody 0.5556 µg/ml.
Assay [21] has the same target. The experiment in a line: competition ELISA, coated hVEGFR1-Fc, competitor biotin-hPLGF1 4 nM; control Ron antibody 0.0617 µg/ml.
The target is the same in assay [22]. The experiment in a line: competition ELISA, coated hVEGFR1-Fc, competitor biotin-hPLGF1 2 nM; control Ron antibody 16.667 µg/ml.
Assay [23] has the same target. The experiment in a line: competition ELISA, coated hVEGFR1-Fc, competitor biotin-hVEGFA-165 2 nM; control Ron antibody 16.667 µg/ml.
Assay [24] shares this target. The experiment in a line: competition ELISA, coated hVEGFR1-Fc, competitor biotin-hPLGF1 2 nM; control Ron antibody 50.000 µg/ml.

Sequence of hVEGFR1-Fc (R&D 321-fl 050/cf) (human) (P17948 27-758): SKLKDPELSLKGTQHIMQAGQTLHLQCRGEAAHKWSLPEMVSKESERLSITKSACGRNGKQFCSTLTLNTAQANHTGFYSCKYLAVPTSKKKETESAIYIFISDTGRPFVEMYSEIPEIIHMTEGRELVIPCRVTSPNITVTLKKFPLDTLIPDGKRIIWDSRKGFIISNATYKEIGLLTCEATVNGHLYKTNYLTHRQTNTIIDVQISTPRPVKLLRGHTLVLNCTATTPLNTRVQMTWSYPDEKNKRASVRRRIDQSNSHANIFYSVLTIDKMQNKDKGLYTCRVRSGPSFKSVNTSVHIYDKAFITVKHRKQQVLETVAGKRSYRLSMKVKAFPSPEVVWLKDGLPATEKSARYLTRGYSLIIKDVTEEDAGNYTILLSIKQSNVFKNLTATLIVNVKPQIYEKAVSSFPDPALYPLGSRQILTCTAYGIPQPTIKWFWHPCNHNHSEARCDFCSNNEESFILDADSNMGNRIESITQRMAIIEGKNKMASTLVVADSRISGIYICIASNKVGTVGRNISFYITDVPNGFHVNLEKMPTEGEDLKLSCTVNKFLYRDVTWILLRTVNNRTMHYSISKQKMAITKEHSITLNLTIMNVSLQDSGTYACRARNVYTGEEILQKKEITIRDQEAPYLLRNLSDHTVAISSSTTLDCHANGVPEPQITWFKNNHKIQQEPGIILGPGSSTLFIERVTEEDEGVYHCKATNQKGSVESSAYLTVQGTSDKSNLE

Turning to control Ron antibody (R&D MAB691), the OD560 (bound biotinylated PlGF) turned out to be 0.407 OD in assay [1]; 0.295 OD in assay [4]; 0.298 OD in assay [7]; 0.315 OD in assay [10]; 0.389 OD in [11]; 0.283 OD in assay [14]. The OD560 (bound biotinylated PlGF) in assay [17] is 0.296 OD; in assay [18], 0.432 OD; in [19], 0.37 OD; in assay [20], 0.436 OD; in [21], 0.408 OD; in assay [22] it was 0.304 OD. Besides, the OD560 (bound biotinylated PlGF) in assay [24] came to 0.339 OD. The OD560 (bound biotinylated VEGF-A) worked out at 1.42 OD in [2]; 0.506 OD in assay [3]; 0.535 OD in [5]; 1.54 OD in assay [6]; 0.535 OD in assay [8]; 1.47 OD in [9]. For the same substance, the OD560 (bound biotinylated VEGF-A) in assay [12] was determined as 1.51 OD; in assay [13], 0.519 OD; in [15], 0.554 OD; in assay [16], 0.53 OD; in assay [23] it was 0.566 OD.
